Assays:
[1] = biological target: human TGF-β1 (human) (UniProt P01137); test: ELISA, TGF-β1 coated at 0.5 µg/ml, HRP anti-human IgG detection, OD450
[2] = biological target: human TGF-β3 (human) (UniProt P10600); test: ELISA, TGF-β3 coated at 0.5 µg/ml, HRP anti-human IgG detection, OD450
[3] = biological target: human PD-L1 on CHO-K1 cells (human) (UniProt Q9NZQ7); test: flow cytometry on CHO-K1 cells overexpressing human PD-L1, PE anti-human IgG detection, median fluorescence intensity
[4] = biological target: human PD-L1 on CHO-K1 cells (human) (UniProt Q9NZQ7); test: dual-target flow cytometry: sample pre-mixed with 3 µg/ml human TGF-β1, then CHO-K1 cells overexpressing human PD-L1, detection with PE anti-human TGF-β1 antibody (signal needs PD-L1 and TGF-β1 bound at once)

Chain of human PD-L1 on CHO-K1 cells (human) (Q9NZQ7 19-290): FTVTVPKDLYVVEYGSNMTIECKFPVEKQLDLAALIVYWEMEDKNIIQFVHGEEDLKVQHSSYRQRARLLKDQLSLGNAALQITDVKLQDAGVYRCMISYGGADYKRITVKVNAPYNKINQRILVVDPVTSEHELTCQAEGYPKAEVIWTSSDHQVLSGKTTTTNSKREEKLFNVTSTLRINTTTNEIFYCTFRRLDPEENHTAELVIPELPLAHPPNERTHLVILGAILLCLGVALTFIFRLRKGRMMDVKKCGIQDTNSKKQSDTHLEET
Chain of human TGF-β3 (human) (P10600 301-412 limits assumed): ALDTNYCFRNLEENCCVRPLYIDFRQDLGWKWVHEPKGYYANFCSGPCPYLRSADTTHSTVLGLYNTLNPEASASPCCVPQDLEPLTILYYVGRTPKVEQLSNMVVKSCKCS
Chain of human TGF-β1 (human) (P01137 279-390 limits assumed): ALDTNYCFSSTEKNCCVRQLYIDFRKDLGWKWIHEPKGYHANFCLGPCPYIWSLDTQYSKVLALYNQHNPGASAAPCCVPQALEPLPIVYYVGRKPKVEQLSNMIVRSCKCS

- EC50 [1]: 0.598 nM
- EC50 [2]: 1.12 nM
- EC50 [3]: 1.43 nM
- EC50 [4]: 0.788 nM
Substance: 900544 (control drug M7824 from Merck, expressed in-house) (bispecific antibody)

From patent US20240026004A1
